Data taken from paper doi:10.1101/2024.06.27.600884.

Tests used:
Experiment in all cases: EMSA
TRF2ΔB-F59A = TRF2ΔB-F59A (UniProt Q15554 87-542, F101A)
TRF2ΔB = TRF2ΔB (UniProt Q15554 87-542)
TRF2ΔBΔTRFH = TRF2ΔBΔTRFH (UniProt Q15554 288-542)
Myc-TRF2ΔB (RRL) = Myc-TRF2ΔB (RRL) (UniProt Q15554 87-542)
Myc-TRF2ΔBΔTRFH (RRL) = Myc-TRF2ΔBΔTRFH (RRL) (UniProt Q15554 288-542)
TRF2ΔBΔHinge = TRF2ΔBΔHinge (UniProt Q15554 87-287+484-542, internal_change)
Myc-TRF2ΔBΔHinge (RRL) = Myc-TRF2ΔBΔHinge (RRL) (UniProt Q15554 87-287+484-542, internal_change)

Measured: binding result

B1: 4-repeat telomeric probe (dsDNA)
DNA 1: GTACCCGGGGATCGTCGACTCTAGAGGGGCCCTAACCCTAACCCTAACCCTAACCCGGGCTCGAATTCGATCCTCTAGAGTCGACCTGCAGGCATGCAAGCU
DNA 2: AGCTTGCATGCCTGCAGGTCGACTCTAGAGGATCGAATTCGAGCCCGGGTTAGGGTTAGGGTTAGGGTTAGGGCCCCTCTAGAGTCGACGATCCCCGGGUAC
modifications: Cy5.5-dUTP incorporated by Klenow fill-in (U near both 3' ends)
binds: TRF2ΔB-F59A | TRF2ΔB | TRF2ΔBΔTRFH | Myc-TRF2ΔB (RRL) | Myc-TRF2ΔBΔTRFH (RRL) | TRF2ΔBΔHinge | Myc-TRF2ΔBΔHinge (RRL)
